Measured values taken from patent US20240210419A1 (UNIVERSITY OF VIRGINIA PATENT FOUNDATION, published 2024).
Each block holds one binder with its values, some of them ahead of it.

How the values were obtained:
[1] = biological target: T1, FN-4G-10 recombinant fibronectin fragment (diseased form mimic) (UniProt P02751 1448-1537; P02751 1538-1631, limits assumed); experiment: ELISA, fibronectin fragment tethered to maleimide activated plate, colorimetric detection
T1 construct: domain: 9th type III repeat;domain: 10th type III repeat; also called FnIII9-4G-10; FnIII-4G-10
Description: (§1) In vitro ELISA binding assays were employed to determine the efficacy of binding of H5 antibodies and derivatives thereof to the diseased form (dise) and the healthy form (norm) of fibronectin. Maleimide activated ELISA plates were used to tether the recombinant fibronectin fragments, which were named as FN-4G-10 and FN-9*-10, and they mimicked diseased and normal form of FN, respectively. Both formats of H5 were used in different molar concentrations starting with 10^-5M and ending with 10-11M. Bound antibodies were detected by colorimetric method.
(§2) The data represents the combination of two independent experiments, one comparing E. coli (eH5) versus N. benthamiana (nicoH5) produced H5-scFv and the second comparing H5-scFv (scFv) to H5-IgG1 (H5-IgG). […] Further, it discriminated the two fragments showing higher affinity for FN-4G-10 (diseased form) compared to FN-9*-10 (Healthy form).

[2] = biological target: FN-9*-10 recombinant fibronectin fragment (normal form mimic) (UniProt P02751); experiment: as above
[3] = biological target: FN-9*-10 recombinant fibronectin fragment (normal form mimic) (UniProt P02751); experiment: ELISA, fibronectin fragment tethered on maleimide-activated plate, colorimetric detection (absorbance)
[4] = biological target: T1, FN-4G-10 recombinant fibronectin …; experiment: as above
Description: as §1, §2

[5] = biological target: FN-4G-10 recombinant fibronectin fragment (diseased form mimic) (UniProt P02751); experiment: as above
Sequence of FN-4G-10 recombinant fibronectin fragment (diseased form mimic) (UniProt P02751) (P02751 other isoform, or with tags, fused parts or gaps limits assumed): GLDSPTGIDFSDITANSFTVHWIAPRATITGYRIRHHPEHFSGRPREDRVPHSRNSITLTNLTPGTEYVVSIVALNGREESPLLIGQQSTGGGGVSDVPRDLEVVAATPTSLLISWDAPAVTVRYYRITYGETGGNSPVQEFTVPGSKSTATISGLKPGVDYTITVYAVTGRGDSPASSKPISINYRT

Sequence of FN-9*-10 recombinant fibronectin fragment (normal form mimic) (P02751 1448-1631): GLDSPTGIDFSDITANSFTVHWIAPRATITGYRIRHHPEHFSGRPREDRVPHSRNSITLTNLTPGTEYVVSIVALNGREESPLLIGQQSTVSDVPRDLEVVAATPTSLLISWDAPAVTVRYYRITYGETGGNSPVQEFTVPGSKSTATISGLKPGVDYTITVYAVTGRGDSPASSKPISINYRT
T1 sequence (P02751 other isoform, or with tags, fused parts or gaps limits assumed): as the sequence (P02751 other isoform, or with tags, fused parts or gaps limits assumed) above

- fold higher binding than the H5-scFv format at equimolar concentration [1]: ≥ 50 fold
- fold higher binding than the H5-scFv format at equimolar concentration [2]: > 50 fold
- EC50 (read off the curve) [3]: 10 nM
- EC50 (read off the curve) [4]: ~4 nM
B1: modified H5-IgG1 antibody (antibody, V domains shown)
VH: EVQLLESGGGLVQPGGSLRLSCAASGFTFSSYAMSWVRQAPGKGLEWVSDIYDGGGTNYADSVKGRFTTSRDNSKNTLYLQMNSLRAEDTAVYYCAKTADNFDYWGQGTLVTVSS
VL: DIQMTQSPSSLSASVGDRVTITCRASQSISSYLNWYQQKPGKAPKLLIYAASTLQSGVPSRFSGSGSGTDFTLTISSLQPEDFATYYCQQANSAPTTFGQGTKVEIKR
notes: Full length IgG1 format; Made in a plug-and-(dis)play (PnP) hybridoma cell line; also called modified IgG1 format of H5

- EC50 (read off the curve) [3]: 100 nM
- EC50 (read off the curve) [5]: 100 nM
B2: unmodified H5 antibody (H5-scFv) produced in E. coli (scFv, part only; not given: scFv linker, domain order, tags, V domains shown, not shown: another chain or arm of the molecule; small tags and cut ends)
VH: B1 VH
VL: DIQMTQSPSSLSASVGDRVTITCRASQSISSYLNWYQQKPGKAPKLLIYAASTLQSGVPSRFSGSGSGTDFTLTISSLQPEDFATYYCQQANSAPTTFGQGTKVEIK
